This is an account of results in paper PMC11384143, “A pan-allelic human SIRPα-blocking antibody, ES004-B5, promotes tumor killing by enhancing macrophage phagocytosis and subsequently inducing an effective T-cell response” (Antibody Therapeutics, 2024).

Assay [1] addresses T1, cynomolgus SIRPα overexpressed on CHOK1/cSIRPα cells (Macaca fascicularis, UniProt A0A2K5VYQ9).
T1 construct: signal regulatory protein alpha (SIRPα), cynomolgus monkey, overexpressed on CHO-K1 cells; also called cynomolgus SIRPα-expressing cells; source: CHOK1/cSIRPα cell line, bought: Chempartner
Description: flow cytometry on cells; serial dilutions of antibody on CHOK1 cells overexpressing SIRPα, 1 h at 4°C; Alexa Fluor 647 anti-human IgG Fcγ secondary antibody; MFI. To be noted: one partner purified. On the technique in general: Flow cytometry measures light scatter and fluorescence of single cells or particles in a stream.

In assay [2] the target is T2, 6 × His tagged huSIRPγ ECD recombinant protein (Homo sapiens (Human)., UniProt Q9P1W8).
T2 construct: signal regulatory protein gamma (SIRPγ, SIRP beta2), human, extracellular domain; also called signal regulatory protein gamma; SIRP beta2; source: bought: KACTUS
Description: SPR; Biacore T200, 25°C; antibody captured on anti-human IgG (Fc) CM5 chip (80 ± 12 RU); 6 × His tagged SIRP analyte 30–0.9375 nM in 1× HBS-EP+; 1:1 binding model. The settings on record: both partners purified.

Assay [3] concerns the target T3, 6 × His tagged cynomolgus SIRPα ECD recombinant protein (Macaca fascicularis, UniProt A0A2K5VYQ9).
T3 construct: signal regulatory protein alpha (SIRPα), cynomolgus monkey, extracellular domain; also called cynomolgus monkey SIRPα; source: bought: KACTUS
Described as above. The settings on record: both partners purified.

T2 sequence (Q9P1W8 29-360): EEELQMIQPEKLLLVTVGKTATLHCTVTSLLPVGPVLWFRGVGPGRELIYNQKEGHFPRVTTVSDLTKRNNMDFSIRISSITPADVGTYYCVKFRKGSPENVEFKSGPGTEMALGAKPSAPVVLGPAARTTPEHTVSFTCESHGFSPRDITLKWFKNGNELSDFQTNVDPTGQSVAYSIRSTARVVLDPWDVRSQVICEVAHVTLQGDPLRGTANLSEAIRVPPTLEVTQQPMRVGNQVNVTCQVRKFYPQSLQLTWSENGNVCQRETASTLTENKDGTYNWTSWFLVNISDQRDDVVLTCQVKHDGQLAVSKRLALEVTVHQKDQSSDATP

B1: HEFLB (an analogue of BI 765063) (antibody, V domains shown)
VH: EVQLVQSGAEVKKPGESLRISCKASGYSFTSYWVHWVRQMPGKGLEWMGNIDPSDSDTHYSPSFQGHVTLSVDKSISTAYLQLSSLKASDTAMYYCVRGGTGTLAYFAYWGQGTLVTVSS
VL: DVVMTQSPLSLPVTLGQPASISCRSSQSLVHSYGNTYLYWFQQRPGQSPRLLIYRVSNRFSGVPDRFSGSGSGTDFTLKISRVEAEDVGVYYCFQGTHVPYTFGGGTKVEIK
notes: human IgG4; also called analogue of BI 765063 (OSE-172)
Regarding B1, the binding result is listed as “no binding” in assay [1], “no binding (tested: 30 nM (highest analyte concentration))” in assay [2] and “no binding (tested: 30 nM (highest analyte concentration))” in assay [3].

B2: hu1H9 (an analogue of FSI-189, Gilead) (antibody, V domains shown)
VH: QVQLVQSGAEVKKPGASVKVSCKASGYTFTSYWITWVKQAPGQGLEWIGDIYPGSGSTNHIEKFKSKATLTVDTSISTAYMELSRLRSDDTAVYYCATGYGSSYGYFDYWGQGTLVTVSS
VL: DIQMTQSPSSLSASVGDRVTITCRASENIYSYLAWYQQKPGKAPKLLIYTAKTLAEGVPSRFSGSGSGTDFTLTISSLQPEDFATYYCQHQYGPPFTFGQGTKLEIK
notes: human IgG4
As to B2, the binding result in assay [2] is given as “binds”.
